Measurements taken from paper PMC6590870.
Several values for one entry are separate records, joined by “and”; a condition that tells them apart may be missing. Equal entries are not always repeated.

Biological target: Strep-HP1542 (bactofilin HP1542 of H. pylori reference strain 26695, N-terminal Strep-tagged version) (Helicobacter pylori strain 26695)
Assay: cross-linking; glutaraldehyde dilutions 10% to 0.01% added to strep-tagged protein, 10 min at 23°C; SDS-PAGE and immunoblotting

stoichiometry N: 2 and 3
Substance: Strep-HP1542 (bactofilin HP1542 of H. pylori reference strain 26695, N-terminal Strep-tagged version) (natural protein)
